Source: article PMC8164090

Biological target: Cnn-C^S186D scaffolds (Cnn-C-PReM^m with S186 phosphomimicked) (Drosophila melanogaster)

recruitment of γ-tubulin to scaffolds in unfertilized eggs, fold over Cnn-C scaffolds: 3.8 fold
Substance: γ-tubulin37C-mCherry (from UniProt P42271 1-457) (natural protein)
